B1: diphtheria toxin receptor on Cos-7 cells (monkey kidney) (receptor)
chain: DLQEADLDLLRVTLSSKPQALATPSKEEHGKRKKKGKGLGKKRDPCLRKYKDFCIHGECKYVKELRAPSCICHPGYHGERCHGLSL
notes: whole, on cells; also called DT receptor

What was measured:
[1] = target: diphtheria toxin receptor on human cell lines (U251, HeLa, Jurkat) (human) (UniProt Q99075); experiment: cell-based or functional assay
[2] = target: diphtheria toxin receptor on Cos-7 cells (monkey kidney) (monkey) (UniProt Q09118); experiment: cold competitor against I^125-labelled DT on Cos-7 cells; reference native DT
[3] = target: T1, DTR (diphtheria toxin receptor binding domain, codons 384-535 of DT), control protein (UniProt P00588 416-567); experiment: competition with I^125-labelled DT on Cos-7 cells
T1 construct: range 384-535

Row | Molecule | Apoptosis Prevention (%), HeLa cells, 0.2 uM STS, 2.17 uM Bcl-xL-DTR, 10 hrs [1] [%] | fold lower affinity than native DT [2] [fold] | binding result [3]
1 | Bcl-xL-DTR | 32.4 | 3 | 
2 | B1 |  |  | no binding
